Data from PMC3463533.

Tests used:
[1] = anti-V5 immunoblot of culture medium
[2] = NP-40-insoluble fraction, anti-V5 immunoblot
[3] = glycan lost, control: wild type
[4] = glycan changed form, control: untreated
[5] = glycan lost, control: untreated

Substance | expression_or_secretion [1, 3] | other: NP-40-insoluble aggregation [2, 3] | other results
Surfactant protein A2 (SP-A2): N207A | decreases | increases | –
Surfactant protein A2 (SP-A2): N207Q | decreases | increases | –
Surfactant protein A2 (SP-A2): N207S | decreases | increases | –
Surfactant protein A2 (SP-A2): N207T | decreases | increases | –
Surfactant protein A2 (SP-A2): swainsonine | – | – | expression_or_secretion [1, 4]: no change; other: NP-40-insoluble aggregation [2, 4]: no change
Surfactant protein A2 (SP-A2): tunicamycin | – | – | expression_or_secretion [1, 5]: decreases; other: NP-40-insoluble aggregation [2, 5]: increases
